± gives the uncertainty stated by the source.
Test: amyloid nucleation score (Sup35N fusion, yeast selection) (log enrichment); library NNK1; higher = more nucleation; inactive = no reads after selection
How it was run: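 Sup35N was fused to peptides of 20 random codons and expressed in psi-negative yeast, which were induced with 100 μM copper sulfate for 24 hours and then grown on medium lacking adenine and uracil for 7 days at 30°C. Plasmid inserts from input and output were sequenced on Illumina. The nucleation score is the DiMSum log enrichment of output over input reads, centred on the mode score of non-aggregating sequences. Sequences with under 100 input reads were left out, and random libraries had three technical output replicates.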

| Substance | amyloid nucleation score |
| --- | --- |
| LVTRLALSFAVNFLLGDSCV | 0.595 ± 0.48 |
| SILSWLFSWTMLEEVI | inactive |
| MLVFYCNRN | 2.88 ± 0.22 |
| MFWQHQLFVESRQNSSFTSF | -0.23 ± 0.63 |
| ISLAVWGFSILLRIADCSMI | 0.123 ± 1.2 |
| LDIDTKW | -0.204 ± 0.38 |
| LIWWFEGRPRVSGGFSVFDV | -0.304 ± 1.1 |
| RFFNHPMSFANMKLRSECTR | -0.832 ± 0.94 |
| NWYVVYSWSEQIYREDSMGT | -0.52 ± 0.71 |
| TLIGSDLVFGSRDPGWGCTI | -0.406 ± 0.45 |
| YSIFTIKGRDCKLFITNNVS | 7.468 ± 0.045 |
| DAMWEMRVTTVRALARVCVC | 0.236 ± 1.1 |
| WFNRSICSPNSHNDSSRFNQ | inactive |
| LAVEWWTNVVYVFYAYFANR | 0.001 ± 0.25 |
| SRGLNFVIVTFYCDLLQG | -0.881 ± 1.6 |
| WVRGSYPPDAHR | 1.86 ± 0.29 |
| RGRTRLKFLCLLYWWGKTKG | -0.4 ± 0.44 |
| LRNSHNVGEQFCISVRDSLG | 0.007 ± 0.69 |
| CGWSSMIVP | 0.343 ± 0.63 |
| LKASMW | 0.322 ± 0.37 |
| TQDEMVSVRNKLSCVTLE | 4.04 ± 0.06 |
| SYFKCMIILSRMLLVVLEI | -0.272 ± 0.65 |
| VGVSAVSTNSSVSKIFGTSW | 0.746 ± 0.85 |
| ISYSLRGSVRR | -0.032 ± 0.41 |
| YGVMSLRGVRLVQDVKTRSF | -0.849 ± 0.62 |

| Substance | amyloid nucleation score |
| --- | --- |
| LFDSLEAVYRSYGKSWACYI | -1.63 ± 0.9 |
| MCILTRRFGLMGWNTHYKS | -0.525 ± 0.94 |
| LRIDFGDATSVGRRRFMCTV | -0.199 ± 1.5 |
| YLDSILYMGLTDLVWQVGTT | -0.334 ± 0.43 |
| NWFLYWT | 3.77 ± 0.11 |
| CRGNLIL | -0.578 ± 0.29 |
| VGNNKLFKTPMKDRELMICL | -0.184 ± 0.48 |
| CFFEILLSMISTMPRNVKLR | -0.28 ± 0.41 |
| CYSMNEFFGNLHVSTRTHGK | -0.944 ± 0.66 |
| IQGNFRDLGRDKHDTEVWHP | 0.858 ± 0.45 |
| LPGTSRRASRCLFACYVDMS | 0.676 ± 0.39 |
| SIFWSRTVLLMN | 5.97 ± 0.1 |
| INTKRVRSRHSTR | -0.502 ± 0.79 |
| DLFRSSLSPVSLLHSDMDMG | 0.12 ± 0.41 |
| FVVVVGSHLGDGFCDCWVNC | 2.03 ± 0.24 |
| RVYYLMDLIACCPYSLGHRN | 8.606 ± 0.051 |
| LRKMLMDE | inactive |
| GSDMCKSSVSECIKKLATIQ | inactive |
| IEVGIVGNLS | inactive |
| RMGNLEKCKEPGVVNRWLGI | -0.507 ± 0.52 |
| VADCPCLGLVNTLAETMNVC | 0.243 ± 0.6 |
| LVWSGLHVGGHSWVGFTGVV | 0.241 ± 0.61 |
| QYPLMK | 0.319 ± 0.32 |
| SISNTLLGLEEWLPNYVNVF | 0.871 ± 0.49 |
| SIYCGDTQDVVPIVSHLSNL | 0.187 ± 0.29 |

| Substance | amyloid nucleation score |
| --- | --- |
| TVYSLYVIDALGFLCTNVML | 0.349 ± 0.62 |
| RSESNVMS | 0.397 ± 0.71 |
| SESKGHHKCRRALLYRGM | 0.418 ± 1.2 |
| EWVGQFEYEGTTLWVYLVTL | -0.419 ± 0.27 |
| EGQCSNIVSKLAPSKIPYLR | -0.853 ± 0.66 |
| LVKWGCQLSVEFVRFNTGFQ | 1.74 ± 0.094 |
| ARMASHRTCLNVYLRLCAYL | -0.343 ± 0.31 |
| SFKPSSFKFTIT | -0.605 ± 0.41 |
| VANFET | -0.769 ± 1.1 |
| GTTLDYWRVMEMSGDFTSFC | -0.073 ± 0.68 |
| LNMHSR | inactive |
| EGVQKDC | inactive |
| QWLYYVKEPIAYSLL | 0.46 ± 0.24 |
| RGVYVWKGSSLH | -0.377 ± 1.1 |
| IILIDMVCPPCRPRFRSYSC | -0.153 ± 0.69 |
| FTSFFVSV | -1.91 ± 1.9 |
| IISGIIIRYIDYNYRD | inactive |
| RNIVRFCNRSFRILLRGSAT | inactive |
| RLAGKHKRTDTRSKRTPVLR | 0.495 ± 0.47 |
| RVSGMAGFFTIKLLKRRSWA | -0.503 ± 0.62 |
| LARDYGFD | 0.051 ± 0.3 |
| ANADDMLRFRGDF | 0.243 ± 0.44 |
| FCCCNRLYQGRELWVKLVNR | 4.94 ± 0.06 |
| FFICKFL | -0.427 ± 1.9 |
| LSMKNQDTCTFTCVLSHLSL | 1.9 ± 0.23 |

| Substance | amyloid nucleation score |
| --- | --- |
| LLYGA | -0.727 ± 1.4 |
| RVIFSGYWRAIFSLS | -0.383 ± 0.66 |
| VNVSVDFKREMRIPWLAGIC | -0.651 ± 0.67 |
| WLYMRGPKVVRSCREITARA | 0.413 ± 1.4 |
| LLAFL | -0.704 ± 0.55 |
| WTLQMLAYWYLTFFFPSFVY | 0.169 ± 0.37 |
| VRMSFRLVEPY | -0.301 ± 0.81 |
| VDSSRRDVCDGDT | 0.104 ± 0.48 |
| FFNVVYLTRANASYTGYSNI | 5.41 ± 0.063 |
| VPIVGDLEKVMGCYSYWANK | -0.011 ± 0.18 |
| SPGVDGWNPWVDTVLRKVSK | -0.776 ± 0.61 |
| ERSSAPECNFKYISYTGKS | -0.881 ± 0.48 |
| VMVWLGDREAGLCESELGAG | 0.12 ± 0.45 |
| CMGPYFSGMSEFRGTLSVHA | -0.491 ± 1.9 |
| KYYMSLDFWGHALH | 2.76 ± 0.15 |
| GSCLIRASFQVHMILSSGHL | inactive |
| IVKWLMGMHWLMLAHGV | 0.181 ± 1.4 |
| RLGTSAMRCQP | 0.038 ± 0.78 |
| SWCRGLEVQWLRCIFRM | 0.274 ± 0.69 |
| RSEGRRGRFNMWSLAFGDVP | -0.218 ± 0.3 |
| LKRDVTSVSGY | 0.348 ± 0.38 |
| YSRLSCWYYAPGVSLGVIKW | 0.483 ± 0.48 |
| VTLKVFCIVEV | 0.314 ± 0.44 |
| WWDAEFGGKSRAS | -0.012 ± 0.57 |
| MFFVFSYSRS | 1.52 ± 0.28 |

| Substance | amyloid nucleation score |
| --- | --- |
| ANRNDCTQFTDSK | -0.41 ± 0.27 |
| TFYEMPFIFDLCYRWLTVTG | 1.34 ± 0.65 |
| KPLLTQQK | -0.356 ± 0.54 |
| CVFIHRSFHTLFSGRRVDYP | 0.229 ± 0.55 |
| VPAVSCMVFTAQFDSGVYSC | -0.03 ± 0.73 |
| YGLEYVYVVV | 0.277 ± 1.4 |
| MDGALSVEFSWGLLSKTRLC | -0.122 ± 0.74 |
| LHLRTVAGSWSNIFYLAAPM | 0.433 ± 0.31 |
| GTREPDFGCKLDWDSY | 0.924 ± 0.25 |
| RNFPWQGFYSTCMMPHF | 0.986 ± 0.6 |
| GILYQV | -0.403 ± 0.29 |
| FVCWVGTGLMIRVAIDQCWR | -0.202 ± 0.31 |
| RGSVFPCNVQVDWLRPETRA | -0.047 ± 1.1 |
| SWLCHRTSVLVPVVSISRKL | 1.15 ± 0.7 |
| SMMKRVTAVVNVFYRFDIKA | inactive |
| LRRPVRSTLNGMRMSQHTRR | -0.164 ± 0.66 |
| RGSRTY | 0.17 ± 0.53 |
| QRFLHVESYESCLVSVSNLS | -0.752 ± 1.9 |
| WCCWVMCV | 6.726 ± 0.061 |
| CFCPSKGDTDRLWAHFSARF | -0.093 ± 0.45 |
| DKSNRTCNWQFNNICCL | 8.386 ± 0.049 |
| WYSVKESLGSPSLPSQFLST | inactive |
| INRCGGVPARLLLCKLGYLG | 0.298 ± 0.5 |
| SSKLSYWYKMAIESSFNVLH | -0.083 ± 0.41 |
| YCLCCHLLKT | inactive |

| Substance | amyloid nucleation score |
| --- | --- |
| RGRSIDVPRE | -0.004 ± 0.53 |
| SHIRSWVRSAHAWYIWHGKT | 0.466 ± 0.44 |
| MLVDIGRC | -1.31 ± 1.6 |
| RYCVGLVRICLKLGVREICS | 1.01 ± 0.97 |
| WFSYYLLFRYNDNLSRAERS | 0.456 ± 0.61 |
| MLLEFCKCGVGSIVWCQKFA | 4.94 ± 0.11 |
| EAGNTDSAINGVRAKDGS | 1.15 ± 0.69 |
| FQGMYWNGFSSSSMSAATPR | 0.157 ± 0.52 |
| QVCRARMHMEVGAMGTFHAS | 0.521 ± 0.41 |
| SWATWLDMNG | 0.964 ± 0.76 |
| TLVTEESWMSLLSVNIAQ | -0.378 ± 0.59 |
| RLYIHHVIHVDKYNFGVYPP | 0.245 ± 0.32 |
| FSHIELLERAVLMSRVRFLW | -0.514 ± 1.5 |
| VVSLGNSSDYCHWKLILPTV | 0.151 ± 0.4 |
| GGLVYRLEKDSF | inactive |
| QTSDTNWGVLFTVYFLCQDM | -0.059 ± 0.67 |
| VVLWLVDFPSPCPELKNLHF | inactive |
| HTISENRSGLVTP | -0.966 ± 0.9 |
| NFPKYGFQGVFRTPMWYGFF | -1.63 ± 1.1 |
| SHPVIL | 0.039 ± 0.29 |
| TQRTAFRGR | 0.203 ± 0.75 |
| YYLEGSNALYIKVDRILRLL | -0.187 ± 0.54 |
| QIIKENFRRSY | 2.45 ± 0.55 |
| RAAALRRKRDD | 0.203 ± 0.42 |
| DSTFHMDYY | -0.121 ± 0.5 |

| Substance | amyloid nucleation score |
| --- | --- |
| DRTRLVSHHTRIVRRWAHVY | 0.064 ± 0.65 |
| SLMSLLLNFVNLTNNNLSPF | -2.99 ± 1.6 |
| GFLIGRSD | 0.022 ± 0.43 |
| YFEWFVYLYSSRVFFLMLGR | -0.038 ± 0.62 |
| NYFTVCLKGVRSDPPSVAKG | -0.596 ± 0.4 |
| FVYLVHLLMNGRVIKLFRDM | -0.372 ± 0.27 |
| RCRIWEEIGPIGKGERSRGC | 0.405 ± 0.45 |
| LLRMIKICYDLRSNLDSWRS | -0.529 ± 1.7 |
| LVCFHQRVKIVRYCRTGTLT | -0.095 ± 0.61 |
| AAVCRSILVF | 0.674 ± 0.88 |
| DLLFMLRGAWAKSFMMGSVG | 0.059 ± 0.43 |
| WESDIFFMIGLVQRRQLTGP | 2.91 ± 0.17 |
| CTMLCFQALRLLGRRILFQA | -0.361 ± 0.48 |
| RFVQRKDSFFARI | 1.21 ± 0.66 |
| RMMLHRGLYYNVMLNYSLI | 0.86 ± 0.47 |
| VRDSVTLFPK | -0.277 ± 0.77 |
| AQDLPLVTRNCKCMRRHLWV | -0.171 ± 0.42 |
| MDWLEYHMSFCSHV | 0.07 ± 0.26 |
| YSHFEQYMDNFNIMNYDYRD | -0.879 ± 1.2 |
| LYAKLQLLRNKYRVYLFVTS | -0.741 ± 0.55 |
| NSSCIIPMLWWGHNHHWC | 3.43 ± 0.12 |
| FRKTMLWVLVVMGPIFTGSR | 0.548 ± 0.87 |
